Blank lines part the entries; values can stand above or below the molecule they belong to.
Experiments:
[1] = target: wild-type soluble CD73 (ecto-5'-nucleotidase), recombinant (human); assay: cryo-EM structure
[2] = target: human CD73, membrane-bound, on CHO-K1 cells (CHO-K1-huCD73-3F4) (Homo sapiens, UniProt P21589); assay: flow cytometry on cells
[3] = target: T1, wild-type soluble CD73 (ecto-5'-nucleotidase), recombinant (Homo sapiens); assay: HDX-MS
T1 chain: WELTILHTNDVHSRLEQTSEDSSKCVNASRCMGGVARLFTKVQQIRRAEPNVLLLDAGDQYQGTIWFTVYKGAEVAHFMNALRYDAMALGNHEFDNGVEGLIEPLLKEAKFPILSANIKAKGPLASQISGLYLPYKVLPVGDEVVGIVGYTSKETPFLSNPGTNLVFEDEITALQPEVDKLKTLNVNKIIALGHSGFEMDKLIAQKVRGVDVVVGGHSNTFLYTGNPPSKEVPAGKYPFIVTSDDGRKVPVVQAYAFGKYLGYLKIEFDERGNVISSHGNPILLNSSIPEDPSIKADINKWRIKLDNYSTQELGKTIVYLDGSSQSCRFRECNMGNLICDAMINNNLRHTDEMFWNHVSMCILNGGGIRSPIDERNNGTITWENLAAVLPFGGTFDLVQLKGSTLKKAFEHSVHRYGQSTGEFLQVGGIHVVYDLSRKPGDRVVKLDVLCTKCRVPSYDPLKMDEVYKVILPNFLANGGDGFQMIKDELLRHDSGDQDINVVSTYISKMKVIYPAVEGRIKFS

[4] = target: T1, wild-type soluble CD73 …; assay: negative-stain EM

B1: HB0038 (humanized anti-human CD73 monoclonal IgG1, L234A/L235A) (antibody, V domains shown)
VH: QVQLVESGGGLVKPGGSLRLSCAASGFTFSKYAMSWIRQAPGKGLEWVAEISSGGGYINYADSVKGRFTISRDNAKNSLYLQMNSLRAEDTAVYYCARAIYYYGSSYNYYAMDYWGQGTTVTVS
VL: DIQMTQSPSSLSASVGDRVTITCRASQDVGTAEAWYQQKPGKAPKLLIYWASTRHTGVPSRFSGSGSGTDFTLTISSLQPEDFATYYCQQYSSYPLTFGQGTKL
EC50 [2]: 11.8 nM
binding result [3]: binds

B2: HB0038 Fab (Fab, V domains shown)
VH: B1 VH
VL: B1 VL
binding result [4]: binds

B3: HB0039 Fab (Fab, V domains shown)
VH: QVQLVQSGAEVKKPGASVKLSCKASGYTFTSYWIHWVRQAPGQGLEWIGMIHPNSGSTYYNEKFKGRATLTVDKSTSTAYMELSSLRSEDTAVYYCARYYGSDYEWYFDVWGQGTTV
VL: IQMTQSPSSMSASVGDRVTITCKASQNVRTAVVWYQQKPGKAPKALIYLASNRHTGVPDRFSGSGSGTDFTLTISSLQPEDFATYFCLQHWNYPYTFGQGTKL
binding result [3]: binds

Next, values leading:

stoichiometry N [1]: 2
Molecule: wild-type soluble CD73 (ecto-5'-nucleotidase), recombinant (enzyme)

EC50 [2]: 0.24 nM
binding result [4]: binds
B4: HB0039 (humanized anti-human CD73 monoclonal IgG1, L234A/L235A) (antibody, V domains shown)
VH: B3 VH
VL: B3 VL

Source: paper PMC11685497 (Nature Communications, 2024)
